Entries after “also recorded” stand apart in the source; their conditions may differ. Like-named read-outs stand apart in the source and are kept apart here.
T1: C5aR1 mutants (N-terminus, ECL1, ECL2, ECL3) (Homo sapiens, UniProt P21730, K279N/Y11F)
T1 sequence (P21730 with tags, fused parts or gaps Y11F/K279N): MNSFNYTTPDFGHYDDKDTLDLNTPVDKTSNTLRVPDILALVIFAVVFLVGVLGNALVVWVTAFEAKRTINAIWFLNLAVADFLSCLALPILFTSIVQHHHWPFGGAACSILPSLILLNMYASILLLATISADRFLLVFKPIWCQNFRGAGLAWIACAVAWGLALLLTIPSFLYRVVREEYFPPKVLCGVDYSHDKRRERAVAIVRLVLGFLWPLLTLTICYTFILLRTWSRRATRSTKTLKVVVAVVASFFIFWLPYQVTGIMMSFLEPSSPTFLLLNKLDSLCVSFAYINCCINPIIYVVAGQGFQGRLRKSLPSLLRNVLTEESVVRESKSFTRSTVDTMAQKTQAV

T2: C5aR1 (C5aR1-U937 cells) (Homo sapiens, UniProt P21730, K279N)
T2 construct: expressed in transfected cells
T2 sequence (P21730 with tags, fused parts or gaps K279N limits assumed): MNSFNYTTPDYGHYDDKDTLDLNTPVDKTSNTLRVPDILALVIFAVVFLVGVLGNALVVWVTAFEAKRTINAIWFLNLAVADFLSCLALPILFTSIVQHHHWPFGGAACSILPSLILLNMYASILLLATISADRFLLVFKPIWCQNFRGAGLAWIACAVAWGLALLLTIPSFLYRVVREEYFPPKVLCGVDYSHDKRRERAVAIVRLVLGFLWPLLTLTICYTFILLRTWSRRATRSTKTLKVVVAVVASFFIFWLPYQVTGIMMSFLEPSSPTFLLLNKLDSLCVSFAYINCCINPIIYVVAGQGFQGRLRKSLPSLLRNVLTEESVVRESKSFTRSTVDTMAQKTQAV

T3: C5aR1 (human neutrophils) (Homo sapiens, UniProt P21730)
T3 construct: neutrophils isolated from whole blood; host or cells: human neutrophils (cryopreserved, or isolated from whole blood)
T3 sequence (P21730 1-350): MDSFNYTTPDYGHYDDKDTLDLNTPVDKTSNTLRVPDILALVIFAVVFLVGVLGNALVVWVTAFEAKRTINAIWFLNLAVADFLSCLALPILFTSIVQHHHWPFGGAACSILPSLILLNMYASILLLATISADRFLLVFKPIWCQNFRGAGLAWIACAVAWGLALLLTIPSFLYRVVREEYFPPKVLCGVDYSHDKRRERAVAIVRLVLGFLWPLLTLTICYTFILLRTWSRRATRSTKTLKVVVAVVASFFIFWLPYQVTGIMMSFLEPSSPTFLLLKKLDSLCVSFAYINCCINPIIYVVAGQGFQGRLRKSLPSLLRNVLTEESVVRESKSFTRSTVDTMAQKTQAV

T4: C5aR1 on human neutrophils (Homo sapiens, UniProt P21730)
T4 construct: neutrophils isolated from whole blood; host or cells: human neutrophils (cryopreserved, or isolated from whole blood)
T4 sequence (P21730 1-350): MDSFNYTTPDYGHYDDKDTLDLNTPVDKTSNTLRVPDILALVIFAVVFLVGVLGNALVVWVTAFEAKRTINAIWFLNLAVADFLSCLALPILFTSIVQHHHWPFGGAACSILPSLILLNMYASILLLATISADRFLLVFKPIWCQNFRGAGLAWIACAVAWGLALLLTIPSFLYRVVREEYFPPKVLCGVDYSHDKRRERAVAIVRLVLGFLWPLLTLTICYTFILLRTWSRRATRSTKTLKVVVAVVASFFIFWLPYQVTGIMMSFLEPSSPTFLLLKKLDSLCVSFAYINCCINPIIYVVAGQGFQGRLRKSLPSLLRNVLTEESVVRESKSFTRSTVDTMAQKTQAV


Columns and labels:
[1] = molecular target: T1, C5aR1 mutants (N-terminus, ECL1, ECL2, ECL3); test: Alanine scanning / mutagenesis epitope mapping of C5aR1; format: binding; details: Y11F
Description: FIG. 5A is a diagram showing the results of alanine scanning mutations of site I interaction with mab 583. The N-terminal amino acid sequence of C5aR1 is listed across the top of the figure. Glycosylation sites are indicated by rectangle boxes. The only natural glycosylation site is at position N5. The other sites were introduced by mutagenesis. Mutations that abolished clone 583 binding are circled. The sulfated tyrosines at positions 11 and 14 are marked with a star sign. FIG. 5B is a diagram showing results of alanine scanning mutations of site I interaction with mab 66. Mutations that abolished clone 66 binding are circled. The sulfated tyrosines at positions 11 and 14 are marked with a star sign.
Ala substitutions of T8 & D10 moderately reduces its affinity while Y11 & D15 abolishes mAb binding. […] N-glycosylation of at N17 or D17P also abolishes mAb binding. N5 glycan is tolerated but a tandem glycosylation (N5 & N17) is not tolerated. mAb core epitopes are T8-G12 but nature of AA present in D15-D18 influence its binding. […] The core epitope appears to be located near T8-G12, with additional contributions from D15-D18.
Clone 66 was previously characterized as a site I binder and its binding is dependent on tyrosine sulfation at positions 11Y and/or 14Y. […] It should be noted that the only the only non-human species to retain clone 66 binding was baboon, which is the only NHP that retains the DYGHY motif.
However, it was unknown if additional contacts were made with ECL1 or ECL3. […] The data is highlighted in FIG. 5C-5E.
The core epitope of clone 11 is from E180-P183; the core epitope of clone 329 is from E180-P184; and the core epitope of clone 336 is from R178-P183. […] The data for clones 11, 329, and 336 is highlighted in FIG. 5F.

C5aR1 (C5aR1-U937 cells) = molecular target: T2, C5aR1 (C5aR1-U937 cells); test: C5a induced calcium flux (Fluo-4), C5aR1-U937 cells; format: cell-based
Description: (§1) Intracellular calcium is released into the cytoplasm by stimulation of GPCRs and acts as a second messenger of GPCR signaling, commonly used to quantify GPCR agonism and antagonism. As such, calcium flux assays using calcium sensitive dye were utilized to detect cytosolic changes in calcium concentration. […] The dye penetrated the cell membrane and became active once inside the cell. The active form of the dye became fluorescent after binding to intracellular calcium and the fluorescence was used to determine C5aR1 signaling in response to C5a addition. Specifically, stable C5aR1-U937 cells or neutrophils isolated from whole blood were stained with Fluo-4 Direct Calcium Assay kit from Thermo Fisher for 1 hour at 37° C. Next, antibody or antagonist was incubated with the cells for 30 minutes. The basal fluorescence with an excitation at 494 nm and emission at 516 nm was measured for 15 seconds. C5a was added to the cells and the fluorescence was measured over a span of four minutes. The basal read from before C5a stimulation and the max signal after C5a stimulation were used to calculate the response ratio. The potency of the antibodies was assessed for their ability to inhibit intracellular calcium release in C5aR1 expressing cells in the presence of C5a. Similar to the chemotaxis assay, the calcium flux assays were performed using engineered cells stably expressing C5aR1 as well as using human neutrophils.

[2] = molecular target: T3, C5aR1 (human neutrophils); test: C5a induced calcium flux (Fluo-4), human neutrophils; format: cell-based
Description: as §1

[3] = molecular target: T4, C5aR1 on human neutrophils; test: Cell surface binding (flow cytometry), human neutrophils; details: half-log titrations 10^−7.5 to 10^−12 M, vs isotype controls
Method: Follow up screening to ensure specificity was performed by measuring cell surface binding to cells expressing, for example, human C5aR1, human C5aR2, mouse C5aR1, and control cells that were mock transfected. Briefly, cell surface binding was performed on various C5aR1 expressing cell lines (transiently expressed Expi293 cells, stable C5aR1-U937 cells, and neutrophils isolated from whole blood). Briefly, a titration of antibody diluted in flow buffer (1×PBS with 2% fetal bovine serum) was incubated with cells for 1 hour at 4° C. Cells were washed twice with flow buffer. Anti-human-APC secondary antibody was diluted 1:400 in flow buffer and incubated with cells for 30 minutes. Cells were washed twice with flow buffer and resuspended in 100 μL of flow buffer. Fluorescence was measured using the iQue Screen Plus flow cytometer.
Exemplary anti-C5aR1 antibodies generated as described in Example 1 were tested for binding to human neutrophils. Briefly, cryopreserved human neutrophils were obtained from Asarte Biologics.

Row | Molecule | binding to C5aR1 mutant [1] | inhibition of C5a induced intracellular calcium flux (C5aR1 (C5aR1-U937 cells)) | inhibition of C5a induced calcium efflux [2] | inhibition of C5a induced intracellular calcium flux (C5aR1 (C5aR1-U937 cells); listed as 329) | level of binding to human neutrophils [3]
1 | clone 583: anti-C5aR1 Site I antibody; VH SEQ ID NO: 536, VL SEQ ID NO: 595 (antibody, V domains shown) VH: EVQLVESGGGLVKPGGSLKLSCAASGFTFNAYAMSWVRQTPEKRLEWVASISTGGNTYCPDSVKDRFTVSRDNVRNILYLQMSSLRSEDTAMYYCTRGYQRFSGFAYWGQGTLVTVS VL: DVVMTQTPLSPPVSLGYQASISCRSSQSLVHSNGNTYLNWYLQKPGQSPKLLIYKVSNRLSGVPDRFSGSGSGTDFTLKISRVETEDLGVYFCSQSTHVPYTFGGGTKLEIK | does not abolish binding | inhibition of the C5a induced calcium efflux | inhibition of the C5a induced calcium efflux |  | 
2 | clone 329: anti-C5aR1 Site II antibody; VH SEQ ID NO: 492, VL SEQ ID NO: 552 (antibody, V domains shown) VH: QVQLQQSGAELTKPGASVKLSCKASGYTFTNYWMHWVKQRPGQGLEWIGYLNPSSGYTKYNQKFKDKATLTADKSSSTAYMQLNSLTYEDSAVYYCTRSGGDNYGNPYYFDRWGQGTTVTVSS VL: DVVMTQTPLSLTVSLGDQASISCRSSQSLVHSNGNTYLHWYLQKPGQSPKFLIYKVSNRFSGVPDRFSGSGSGTDFRLKISRVEAEDLGVYFCSQSTLVPLTFGAGTKLEIK |  |  | inhibition of the C5a induced calcium efflux | inhibition of the C5a induced calcium efflux; also recorded: inhibited by antibody 329 in a dose-dependent manner; also recorded: inhibited calcium flux as single agents in a dose-dependent manner | highest level of neutrophil binding
3 | clone 66: anti-C5aR1 Site I antibody; VH SEQ ID NO: 483, VL SEQ ID NO: 543 (antibody, V domains shown) VH: QVQLQQSDAELVKPGASVKISCKASGYTFIDHAIHWVKQRPEQGLEWIGYISPGNGEIKYNEKFKAKATLTADKSSSAAYMQLNSLTSADSAVYFCKRALFYYTGKYQPMDYWGQGTTVTDSS VL: DIVMTQSQKFMSTTAGDRVSITCKASQNVGSAVVWYQQKPGRSPKLLIYSSSIRYTGVPDRFTGSGSGTDFTLTINSVQSEDLADYFCQQYNSFPLTFGAGTKLEIK | did not impact binding | inhibited calcium flux as single agents in a dose-dependent manner |  |  | highest level of neutrophil binding

From US12187807B2, “Antibody molecules to C5AR1 and uses thereof” (Visterra, Inc., priority 2020, dated 2025)
